Data reported in US20110200615A1 (published 2011).

B1: 4B7 scFv (yeast displayed) (scFv)
chain: QVQLQQSGPGLVKPSQTLSLTCSVSGGSINSDGSYWSWVRQHPGKGLEWIGYIYYSGTTYFNPSLKSRLTMSVDTSKNQFSLKMTSVTAADTAVYYCARMSGSRSYSQYYFDSWGQGTLVTVSSGGGGSGGGGSGGGGSDIQMTQSPSSLSASVGDRVTITCRASQSISSYLNWYQQKPGTAPKLLISDASTLQSGVPSRFSGSGSGTEFTLTISNLQPEDFATYYCQQFNSYVWTFGQGTKLEIK
B2: 4B6 scFv (yeast displayed) (scFv)
chain: QVQLVQSGAEVKKPGESLVISCKASGDKDTFTSFWIAWVRQMPGKGLEWMGIIYAGDSDTRYSPSFQGHVNISVDRSTNTAYLQWSSLKASDTAMYYCARHDSRYKYFYFGMDVWGQGTTVTVSSGGGGSGGGGSGGGGSDVVMTQSPSSLSASVGDRITITCQAGQDISNFLNWYQQKPGKAPKLLIRDASNLETGVPSRFSGGGSGTHFTFTISSLHPEDIATYFCQQYDNLPYTFGQGTKLEIK
B3: 4B19.1 IgG (antibody, V domains shown)
VH: QVQLVQSGAEVKKPGASVNVSCKASGYTFTGYYIYWVRQAPGQGLEWMGWINPNSGVTKYAQKFQGRVTMTIDTSTNTAYMELNRLRADDTAVYYCAREWTQLWSPYDYWGQGTTVTVSS
VL: DIVLTQSPSTLSASVGDRVTISCRASRSIGWYLNWYQQRPGKAPKLLIYAASSLHNGVPSRFSGSGSGTEFTLTISSLQPDDFATYYCQQAFGFPRTFGQGTKVEIKR
B4: 1B14 scFv (yeast displayed) (scFv)
chain: EVQLVESGGGLVQPGGSLRLSCAASGFTFSSYSMNWVRQAPGKGLEWVAVIWYDGSNKYYADSVKGRFTISRDNSKNTLYLQMNSLRAEDTAVYYCARSSIVGAPYGMDVWGQGTTVTVSSGGGGSGGGGSGGGGSEIVLTQSPSSLSAAVGDRVTITCRASQNIYSYLNWYQQKLGKAPNLLIYAVFSLQSGVPSRFSGSGYGTDFTLTISSLQPEDFATYYCQQSSSSPLTFGGGTKVEIK

Columns and labels:
[1] = molecular target: T1, Botulinum neurotoxin type B, subtype B4 (BoNT/B4) (Clostridium botulinum); experiment: flow cytometry; yeast-displayed scFv, soluble toxin
[2] = molecular target: T2, Botulinum neurotoxin type B, subtype B3 (BoNT/B3) (Clostridium botulinum); experiment: as above
[3] = molecular target: T1, Botulinum neurotoxin type B, subtype B4 …; experiment: KinExA flow fluorimetry; IgG in solution
[4] = molecular target: T2, Botulinum neurotoxin type B, subtype B3 …; experiment: KinExA flow fluorimetry; IgG in solution

Binder | Kd [1] [nM] | Kd [2] [nM] | Kd [3] [nM] | Kd [4] [nM]
B1 | 10 | 25.1 |  | 
B2 | 1.61 | 1.08 |  | 
B3 |  |  | 0.194 | 0.156
B4 | 2.12 |  |  | 
